Test [1] addresses T1, LcrV68-326, N-terminally truncated LcrV (Yersinia pestis, UniProt P0C7U7 68-326).
Test [2] addresses T1, LcrV68-326, N-terminally truncated LcrV. As to the kind of experiment: 125I-LcrV68-326 plus unlabelled IFN-γ on U937 cells.
Test [3] has the same target. The experiment in a line: 125I-LcrV68-326 plus unlabelled IFN-γ on human monocytes.
For test [4] the target is unchanged. As to the kind of experiment: 125I-LcrV68-326 plus unlabelled IFN-γ on human thymocytes.
Test [5] has the same target. The experiment in a line: 125I-LcrV68-326 plus unlabelled IFN-γ on human neutrophils.
Test [6] has as its target T2, IFN-γ receptor on human cells (no IFN-γ added) (human, UniProt P15260 18-489).
T2 construct: whole, on cells; also called receptors of U937 cells and human neutrophils, monocytes, and thymocytes
T2 sequence: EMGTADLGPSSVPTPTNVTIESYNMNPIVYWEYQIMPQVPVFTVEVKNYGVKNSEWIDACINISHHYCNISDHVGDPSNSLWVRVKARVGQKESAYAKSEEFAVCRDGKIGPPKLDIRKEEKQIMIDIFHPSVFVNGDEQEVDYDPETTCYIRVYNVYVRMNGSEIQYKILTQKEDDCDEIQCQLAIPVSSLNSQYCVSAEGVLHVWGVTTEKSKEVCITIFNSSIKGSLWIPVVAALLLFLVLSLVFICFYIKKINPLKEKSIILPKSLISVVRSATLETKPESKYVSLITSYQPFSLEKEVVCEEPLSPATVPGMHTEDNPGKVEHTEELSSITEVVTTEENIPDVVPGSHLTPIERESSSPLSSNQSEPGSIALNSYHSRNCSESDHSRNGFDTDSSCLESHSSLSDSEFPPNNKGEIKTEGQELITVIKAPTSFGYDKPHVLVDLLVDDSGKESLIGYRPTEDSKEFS
The experiment in a line: 125I radioligand binding to U937 cells.

The target of test [7] is T2, IFN-γ receptor on human cells (no IFN-γ …). As to the kind of experiment: 125I radioligand binding to human monocytes.
Test [8] shares this target. As to the kind of experiment: 125I radioligand binding to human thymocytes.
For test [9] the target is unchanged. The experiment in a line: 125I radioligand binding to human neutrophils.

Like-named read-outs stand apart in the source and are kept apart here.

B1: IFN-γ bound to its receptor (IFN-γR-IFN-γ) on human cells (other)
chain 1: QDPYVKEAENLKKYFNAGHSDVADNGTLFLGILKNWKEESDRKIMQSQIVSFYFKLFKNFKDDQSIQKSVETIKEDMNVKFFNSNKKKRDDFEKLTNYSVTDLNVQRKAIHELIQVMAELSPAAKTGKRKRSQMLFRGRRASQ
chain 2: EMGTADLGPSSVPTPTNVTIESYNMNPIVYWEYQIMPQVPVFTVEVKNYGVKNSEWIDACINISHHYCNISDHVGDPSNSLWVRVKARVGQKESAYAKSEEFAVCRDGKIGPPKLDIRKEEKQIMIDIFHPSVFVNGDEQEVDYDPETTCYIRVYNVYVRMNGSEIQYKILTQKEDDCDEIQCQLAIPVSSLNSQYCVSAEGVLHVWGVTTEKSKEVCITIFNSSIKGSLWIPVVAALLLFLVLSLVFICFYIKKINPLKEKSIILPKSLISVVRSATLETKPESKYVSLITSYQPFSLEKEVVCEEPLSPATVPGMHTEDNPGKVEHTEELSSITEVVTTEENIPDVVPGSHLTPIERESSSPLSSNQSEPGSIALNSYHSRNCSESDHSRNGFDTDSSCLESHSSLSDSEFPPNNKGEIKTEGQELITVIKAPTSFGYDKPHVLVDLLVDDSGKESLIGYRPTEDSKEFS
In the case of B1, the Kd (commonly the constant that tells how readily two partners part at equilibrium) came out at 0.016 nM in test [1]; 0.8 nM in test [2]; 7.2 nM in test [3]; 2.4 nM in test [4]; 0.92 nM in [5].

B2: recombinant human IFN-γ (ligand)
chain: QDPYVKEAENLKKYFNAGHSDVADNGTLFLGILKNWKEESDRKIMQSQIVSFYFKLFKNFKDDQSIQKSVETIKEDMNVKFFNSNKKKRDDFEKLTNYSVTDLNVQRKAIHELIQVMAELSPAAKTGKRKRSQMLFRGRRASQ
For B2, the Kd in test [6] was 0.68 nM; in test [7], 0.84 nM; in [8], 0.26 nM; in [9] it was 0.93 nM.

For the origin of these results see patent US20060246084A1 (MICHIGAN STATE UNIVERSITY, published 2006).
